Patent US20240366761A1 (LEGEND BIOTECH IRELAND, published 2024)

B1: TGB23-2 fusion protein (TGFβ receptor and IL-23 receptor fusion protein) (receptor)
chain 1: TIPPHVQKSVNNDMIVTDNNGAVKFPQLCKFCDVRFSTCDNQKSCMSNCSITSICEKPQEVCVAVWRKNDENITLETVCHDPKLPYHDFILEDAASPKCIMKEKKKPGETFFMCSCSSDECNDNIIFSEEYNTSNPDLLLVIFQVTGISLLPPLGVAISVIIIFYCYRVNRQNRSFRTGIKRRILLLIPKWLYEDIPNMKNSNVVKMLQENSELMNNNSSEQVLYVDPMITEIKEIFIPEHKPTDYKKENTGPLETRDYPQNSLFDNTTVVYIPDLNTGYKPQISNFLPEGSHLSNNNEITSLTLKPPVDSLDSGNNPRLQKHPNFAFSVSSVNSLSNTIFLGELSLILNQGECSSPDIQNSVEEETTMLLENDSPSETIPEQTLLPDEFVSCLGIVNEELPSINTYFPQNILESHFNRISLLEK
chain 2: LQCFCHLCTKDNFTCVTDGLCFVSVTETTDKVIHNSMCIAEIDLIPRDRPFVCAPSSKTGSVTTTYCCNQDHCNKIELPTTVKSSPGLGPVELAAVIAGPVCFVCISLMLMVYICHNRTVNRAARHLCPPLPTPCASSAIEFPGGKETWQWINPVDFQEEASLQEALVVEMSWDKGERTEPLEKTELPEGAPELALDTELSLEDGDRCKAKM
B2: TGB23-3 fusion protein (TGFβ receptor and IL-23 receptor fusion protein) (receptor)
chain 1: LQCFCHLCTKDNFTCVTDGLCFVSVTETTDKVIHNSMCIAEIDLIPRDRPFVCAPSSKTGSVTTTYCCNQDHCNKIELPTTVKSSPGLGPVELAAVIAGPVCFVCISLMLMVYICHNRTVNRAARHLCPPLPTPCASSAIEFPGGKETWQWINPVDFQEEASLQEALVVEMSWDKGERTEPLEKTELPEGAPELALDTELSLEDGDRCKAKM
chain 2: TIPPHVQKSVNNDMIVTDNNGAVKFPQLCKFCDVRFSTCDNQKSCMSNCSITSICEKPQEVCVAVWRKNDENITLETVCHDPKLPYHDFILEDAASPKCIMKEKKKPGETFFMCSCSSDECNDNIIFSEEYNTSNPDLLLVIFQVTGISLLPPLGVAISVIIIFYCYRVNRQNRSFRTGIKRRILLLIPKWLYEDIPNMKNSNVVKMLQENSELMNNNSSEQVLYVDPMITEIKEIFIPEHKPTDYKKENTGPLETRDYPQNSLFDNTTVVYIPDLNTGYKPQISNFLPEGSHLSNNNEITSLTLKPPVDSLDSGNNPRLQKHPNFAFSVSSVNSLSNTIFLGELSLILNQGECSSPDIQNSVEEETTMLLENDSPSETIPEQTLLPDEFVSCLGIVNEELPSINTYFPQNILESHFNRISLLEK
B3: TGB23-4 fusion protein (TGFβ receptor and IL-23 receptor fusion protein) (receptor)
chain 1: LQCFCHLCTKDNFTCVTDGLCFVSVTETTDKVIHNSMCIAEIDLIPRDRPFVCAPSSKTGSVTTTYCCNQDHCNKIELPTTVKSSPGLGPVELVPQVTSKAFQHDTWNSGLTVASISTGHLTSDNRGDIGLLLGMIVFAVMLSILSLIGIFNRSFRTGIKRRILLLIPKWLYEDIPNMKNSNVVKMLQENSELMNNNSSEQVLYVDPMITEIKEIFIPEHKPTDYKKENTGPLETRDYPQNSLFDNTTVVYIPDLNTGYKPQISNFLPEGSHLSNNNEITSLTLKPPVDSLDSGNNPRLQKHPNFAFSVSSVNSLSNTIFLGELSLILNQGECSSPDIQNSVEEETTMLLENDSPSETIPEQTLLPDEFVSCLGIVNEELPSINTYFPQNILESHFNRISLLEK
chain 2: TIPPHVQKSVNNDMIVTDNNGAVKFPQLCKFCDVRFSTCDNQKSCMSNCSITSICEKPQEVCVAVWRKNDENITLETVCHDPKLPYHDFILEDAASPKCIMKEKKKPGETFFMCSCSSDECNDNIIFSEEYNTSNPDLLLVIFQVSDWLIFFASLGSFLSILLVGVLGYLGLNRAARHLCPPLPTPCASSAIEFPGGKETWQWINPVDFQEEASLQEALVVEMSWDKGERTEPLEKTELPEGAPELALDTELSLEDGDRCKAKM
B4: TGB23-5 fusion protein (TGFβ receptor and IL-23 receptor fusion protein) (receptor)
chain 1: TIPPHVQKSVNNDMIVTDNNGAVKFPQLCKFCDVRFSTCDNQKSCMSNCSITSICEKPQEVCVAVWRKNDENITLETVCHDPKLPYHDFILEDAASPKCIMKEKKKPGETFFMCSCSSDECNDNIIFSEEYNTSNPDLLLVIFQVPQVTSKAFQHDTWNSGLTVASISTGHLTSDNRGDIGLLLGMIVFAVMLSILSLIGIFNRSFRTGIKRRILLLIPKWLYEDIPNMKNSNVVKMLQENSELMNNNSSEQVLYVDPMITEIKEIFIPEHKPTDYKKENTGPLETRDYPQNSLFDNTTVVYIPDLNTGYKPQISNFLPEGSHLSNNNEITSLTLKPPVDSLDSGNNPRLQKHPNFAFSVSSVNSLSNTIFLGELSLILNQGECSSPDIQNSVEEETTMLLENDSPSETIPEQTLLPDEFVSCLGIVNEELPSINTYFPQNILESHFNRISLLEK
chain 2: LQCFCHLCTKDNFTCVTDGLCFVSVTETTDKVIHNSMCIAEIDLIPRDRPFVCAPSSKTGSVTTTYCCNQDHCNKIELPTTVKSSPGLGPVELVSDWLIFFASLGSFLSILLVGVLGYLGLNRAARHLCPPLPTPCASSAIEFPGGKETWQWINPVDFQEEASLQEALVVEMSWDKGERTEPLEKTELPEGAPELALDTELSLEDGDRCKAKM
B5: TGB23-6 fusion protein (TGFβ receptor and IL-23 receptor fusion protein) (receptor)
chain 1: LQCFCHLCTKDNFTCVTDGLCFVSVTETTDKVIHNSMCIAEIDLIPRDRPFVCAPSSKTGSVTTTYCCNQDHCNKIELPTTVKSSPGLGPVELVSDWLIFFASLGSFLSILLVGVLGYLGLNRAARHLCPPLPTPCASSAIEFPGGKETWQWINPVDFQEEASLQEALVVEMSWDKGERTEPLEKTELPEGAPELALDTELSLEDGDRCKAKM
chain 2: TIPPHVQKSVNNDMIVTDNNGAVKFPQLCKFCDVRFSTCDNQKSCMSNCSITSICEKPQEVCVAVWRKNDENITLETVCHDPKLPYHDFILEDAASPKCIMKEKKKPGETFFMCSCSSDECNDNIIFSEEYNTSNPDLLLVIFQVPQVTSKAFQHDTWNSGLTVASISTGHLTSDNRGDIGLLLGMIVFAVMLSILSLIGIFNRSFRTGIKRRILLLIPKWLYEDIPNMKNSNVVKMLQENSELMNNNSSEQVLYVDPMITEIKEIFIPEHKPTDYKKENTGPLETRDYPQNSLFDNTTVVYIPDLNTGYKPQISNFLPEGSHLSNNNEITSLTLKPPVDSLDSGNNPRLQKHPNFAFSVSSVNSLSNTIFLGELSLILNQGECSSPDIQNSVEEETTMLLENDSPSETIPEQTLLPDEFVSCLGIVNEELPSINTYFPQNILESHFNRISLLEK

biological target: recombinant human TGFβ1 (human, UniProt P01137 279-390); test: cell-based or functional assay
Sequence (P01137 279-390 limits assumed): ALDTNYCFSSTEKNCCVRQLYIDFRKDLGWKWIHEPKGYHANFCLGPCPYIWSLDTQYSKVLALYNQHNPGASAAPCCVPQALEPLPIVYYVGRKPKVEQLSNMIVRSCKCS

T cell number from day 0 to day 5 after transduction, culture with 20 ng/mL TGFβ1, > 4 fold:
B1
B2
B3
B4
B5
